Target: eOD-GT8 60 mer (Aquifex aeolicus; HIV-1)
Assay: ELISA, antibody titration

Row | Substance | EC50 (read off the curve) [µg/mL]
1 | VRC01 (antibody) | 0.2
2 | VRC-PG04g1 (v-gene germline revertant of VRC-PG04) (antibody) | 0.5

From patent US20200121783A1
